Data as given in patent publication US20240181022A1, “AMURINS LYSINS, AND LYSIN-ANTIMICROBIAL PEPTIDE (AMP) CONSTRUCTS ACTIVE AGAINST GRAM-NEGATIVE BACTERIA” (priority 2021, published 2024).
≈ marks a conversion by molar mass, not a printed value.

Key:
E. cloacae [1] = test: Checkerboard synergy assay (FICI) against E. cloacae; format: cell-based, Enterobacter cloacae; details: E. cloacae ATCC 13047
Experimental: Any known method to assess MIC may be used.
Checkerboards are constructed by first preparing columns of e.g., a 96-well polypropylene microtiter plate, wherein each well has the same amount of antibiotic diluted 2-fold along the horizontal axis. […] Bacteria are added to the drug combinations at concentrations of 1×10^5 […] in CAA, for example, with or without human serum or pulmonary surfactant. […] Summation fractional inhibitory concentrations (ΣFICs) are calculated for each drug and the minimum ΣFIC value (ΣFICmin) is used to determine the effect of the Chp peptide/antibiotic combination.
GN370 was further tested in combination with up to seven additional antibiotics (in addition to meropenem) against a variety of bacterial strains, including P. aeruginosa, A. baumannii, E. coli, E. cloacae, and K. pneumoniae. GN370 and the subject antibiotics were tested in a checkerboard assay format, and FICI values were determined, wherein ≤0.5 indicates synergy, >0.5-≤1 indicates additive; and >1 indicates indifferent.

P. aeruginosa = test: microbe, parasite or virus in culture; details: Pseudomonas aeruginosa
K. pneumoniae [2] = test: MIC by broth microdilution against K. pneumoniae; format: cell-based, Klebsiella pneumoniae
A. baumannii = test: MIC by broth microdilution against A. baumannii; format: cell-based, Acinetobacter baumannii
E. cloacae [3] = test: MIC by broth microdilution against E. cloacae; format: cell-based, Enterobacter cloacae
Citrobacter freundii = test: MIC by broth microdilution against Citrobacter freundii; format: cell-based; details: N 2
Experimental: (§1) MIC values were determined by broth microdilution against clinical isolates and resistant isolates from a wide range of bacterial species, including isolates from the CDC Antibiotic Resistance bank, including the GN ESKAPE pathogens and E. coli, including carbapenem-resistant Enterobacteriaciae, Acinetobacter, and Pseudomonas.

Enterobacter aerogenes = test: MIC by broth microdilution against Enterobacter aerogenes; format: cell-based; details: N 1
Experimental: as §1

Klebsiella oxytoca = test: MIC by broth microdilution against Klebsiella oxytoca; format: cell-based; details: N 1
Experimental: as §1

Salmonella senftenberg = test: MIC by broth microdilution against Salmonella senftenberg; format: cell-based; details: N 1
Experimental: as §1

E. cloacae [4] = test: MBEC against E. cloacae biofilm; format: cell-based, Enterobacter cloacae; details: MDR and XDR E. cloacae (14)
K. pneumoniae [5] = test: GN370 time-kill assay, K. pneumoniae; format: cell-based, Klebsiella pneumoniae; details: for Log10 CFU/mL: K. pneumoniae ATCC 700603
Experimental: A kinetic analysis of GN370 bactericidal activity was performed using a time-kill assay format in which CFU reductions of each target organism (P. aeruginosa, K. pneumoniae, A. baumannii, E. coli, and E. cloacae) were measured over 24 hours at 37° C. […] Bactericidal activity was defined as CFU reductions of ≥3-log 10 CFU/mL as compared to the inoculum at the 24-hour time point.

[6] = test system: A. baumannii (ATCC BAA-747); test: microbe, parasite or virus in culture; format: cell-based, Acinetobacter baumannii
E. coli (ATCC 25922) = test: microbe, parasite or virus in culture; format: cell-based, Escherichia coli
[7] = test system: K. pneumoniae (1_1_5 HM-44); test: microbe, parasite or virus in culture; format: cell-based, Klebsiella pneumoniae
E. cloacae (ATCC 13047) = test: microbe, parasite or virus in culture; format: cell-based, Enterobacter cloacae
Serratia marcescens = test: MIC by broth microdilution against Serratia marcescens; format: cell-based; details: N 9
Experimental: as §1

[8] = Klebsiella pneumoniae, AR Bank, N 32
[9] = Klebsiella pneumoniae, Weill Cornell, N 9
[10] = Klebsiella pneumoniae, all isolates, N 41
[11] = Acinetobacter baumannii, AR Bank, N 41
[12] = Acinetobacter baumannii, Weill Cornell, N 26
[13] = Acinetobacter baumannii, all isolates, N 67
[14] = Enterobacter cloacae, AR Bank, N 7
[15] = Enterobacter cloacae, Weill Cornell, N 30
[16] = Enterobacter cloacae, all isolates, N 37

C[C@@H](O)[C@H]1C(=O)N2C(C(=O)O)=C(S[C@@H]3CN[C@H](C(=O)N(C)C)C3)[C@H](C)[C@H]12 [meropenem, reference compound]
FICI of the antibiotic with GN370 (E. cloacae [1]): 0.531 | MIC (P. aeruginosa): 64 µg/mL (≈ 167 µM)

B1: GN370: lysin-AMP construct, SEQ ID NO: 149: MIDR, FIRL and NPTH moieties N-terminal to GN202 lysin (protein)
chain: MIDRFIRLNPTHGPRRPRRPGRRAPVRTSQRGIDLIKSFEGLRLSAYQDSVGVWTIGYGTTRGVTRYMTITVEQAERMLSNDIQRFEPELDRLAKVPLNQNQWDALMSFVYNLGAANLASSTLLDLLNKGDYQGAADQFPHWVNAGGKRLDGLVKRRAAERALFLEPLS
modifications: GN370 lysin
MIC (K. pneumoniae [2]; K. pneumoniae ATCC 700603): (MIC = 4 μg/mL) | MIC (K. pneumoniae [2]; K. pneumoniae HM-44 (head of Table 19)): 4 µg/mL | MIC90 (K. pneumoniae [2]; K. pneumoniae clinical and resistant isolates): 4 µg/mL | MIC50 (K. pneumoniae [2]; [8]): 1 µg/mL | MIC90 (K. pneumoniae [2]; [8]): 4 µg/mL | MIC Range (K. pneumoniae [2]; [8]): 0.125 to 4 µg/mL | MIC50 (K. pneumoniae [2]; [9]): 2 µg/mL | MIC90 (K. pneumoniae [2]; [9]): 4 µg/mL | MIC Range (K. pneumoniae [2]; [9]): 0.25 to 4 µg/mL | MIC50 (K. pneumoniae [2]; [10]): 2 µg/mL | MIC90 (K. pneumoniae [2]; [10]): 4 µg/mL | MIC Range (K. pneumoniae [2]; [10]): 0.125 to 4 µg/mL | MIC (A. baumannii; A. baumannii ATCC BAA 747 (Table 27)): (MIC = 1 μg/mL) | MIC (A. baumannii; A. baumannii ATCC BAA-747 (head of Table 19)): 1 µg/mL | MIC90 (A. baumannii; A. baumannii clinical and resistant isolates): 1 µg/mL | MIC50 (A. baumannii; [11]): 1 µg/mL | MIC90 (A. baumannii; [11]): 1 µg/mL | MIC Range (A. baumannii; [11]): 0.064 to 2 µg/mL | MIC50 (A. baumannii; [12]): 1 µg/mL | MIC90 (A. baumannii; [12]): 1 µg/mL | MIC Range (A. baumannii; [12]): 0.25 to 1 µg/mL | MIC50 (A. baumannii; [13]): 1 µg/mL | MIC90 (A. baumannii; [13]): 1 µg/mL | MIC Range (A. baumannii; [13]): 0.0625 to 2 µg/mL | MIC (E. cloacae [3]; E. cloacae ATCC 13047 (head of Table 19)): 2 µg/mL | MIC (E. cloacae [3]; E. cloacae ATCC 29941): (MIC = 2 μg/mL) | MIC90 (E. cloacae [3]; E. cloacae clinical and resistant isolates): 4 µg/mL | MIC50 (E. cloacae [3]; [14]): 1 µg/mL | MIC90 (E. cloacae [3]; [14]): 4 µg/mL | MIC Range (E. cloacae [3]; [14]): 0.25 to 8 µg/mL | MIC50 (E. cloacae [3]; [15]): 2 µg/mL | MIC90 (E. cloacae [3]; [15]): 4 µg/mL | MIC Range (E. cloacae [3]; [15]): 0.25 to 8 µg/mL | MIC50 (E. cloacae [3]; [16]): 1 µg/mL | MIC90 (E. cloacae [3]; [16]): 4 µg/mL | MIC Range (E. cloacae [3]; [16]): 0.016 to 8 µg/mL | MIC Range (Citrobacter freundii): 0.5 to 2 µg/mL | MIC Range (Enterobacter aerogenes): 1 µg/mL | MIC Range (Klebsiella oxytoca): 4 µg/mL | MIC Range (Salmonella senftenberg): 2 µg/mL | MBEC50 (E. cloacae [4]): 1 µg/mL | MBEC90 (E. cloacae [4]): 2 µg/mL | MBEC Range (E. cloacae [4]): 0.5 to 2 µg/mL | Number of isolates at MBEC 0.5 μg/mL (E. cloacae [4]): 1 | Number of isolates at MBEC 1 μg/mL (E. cloacae [4]): 9 | Number of isolates at MBEC 2 μg/mL (E. cloacae [4]): 4 | Log10 CFU/mL (K. pneumoniae [5]; 0.2x MIC, 1 hr): 5.2 Log10 CFU/mL | Log10 CFU/mL (K. pneumoniae [5]; 0.2x MIC, 3 hr): 5.0 Log10 CFU/mL | Log10 CFU/mL (K. pneumoniae [5]; 0.2x MIC, 24 hr): 8.5 Log10 CFU/mL | Log10 CFU/mL (K. pneumoniae [5]; 1x MIC, 1 hr): 2.0 Log10 CFU/mL | Log10 CFU/mL (K. pneumoniae [5]; 1x MIC, 3 hr): 1.5 Log10 CFU/mL | Log10 CFU/mL (K. pneumoniae [5]; 1x MIC, 24 hr): 1.5 Log10 CFU/mL | Log10 CFU/mL (K. pneumoniae [5]; 2x MIC, 1 hr): 1.5 Log10 CFU/mL | Log10 CFU/mL (K. pneumoniae [5]; 2x MIC, 3 hr): 1.5 Log10 CFU/mL | Log10 CFU/mL (K. pneumoniae [5]; 2x MIC, 24 hr): 1.5 Log10 CFU/mL | Log10 CFU/mL (K. pneumoniae [5]; 5x MIC, 1 hr): 1.5 Log10 CFU/mL | Log10 CFU/mL (K. pneumoniae [5]; 5x MIC, 3 hr): 1.5 Log10 CFU/mL | Log10 CFU/mL (K. pneumoniae [5]; 5x MIC, 24 hr): 1.5 Log10 CFU/mL | concentration with bactericidal activity (≥3-log 10 CFU/mL reduction at 24 hours) (K. pneumoniae [5]; K. pneumoniae, 37° C.): ≥ 1 ×MIC | change in MIC over 28-day serial passage ([6]; A. baumannii (ATCC BAA-747)): No change | MIC ([6]; A. baumannii ATCC BAA-747, target organism of serial passage study): 1 µg/mL | change in MIC over 28-day serial passage (E. coli (ATCC 25922); E. coli (ATCC 25922)): No change | MIC (E. coli (ATCC 25922); E. coli ATCC 25922, target organism of serial passage study): 0.5 µg/mL | MIC ([7]; K. pneumoniae 1_1_5_HM-44, target organism of serial passage study): 2 µg/mL | change in MIC over 28-day serial passage ([7]; K. pneumoniae (1_1_5 HM-44)): ≤ 2 fold | change in MIC over 28-day serial passage ([7]; K. pneumoniae, another instance): no change | change in MIC over 28-day serial passage (E. cloacae (ATCC 13047); E. cloacae (ATCC 13047)): ≤ 2 fold | MIC (E. cloacae (ATCC 13047); E. cloacae ATCC 13047, target organism of serial passage study): 1 µg/mL | MIC50 (Serratia marcescens): 32 µg/mL | MIC90 (Serratia marcescens): >64 µg/mL
